Like-named read-outs stand apart in the source and are kept apart here.
B1: T2B6 (VHH)
VHH: QLQLAESGGGLVQAGDSLRLSCADSGRTFSDYAMGWFRQAPGKEREFVAAISWNGRSTYYIEAVKDRFTISRDNAKKTLYLQMNSLKPEDTAVYYCAAAREDYGSSLVKGSADYWGQGTQVTVSS
B2: T2E1 (VHH)
VHH: QVQLAESGGGFVQAGGSLRLSCVESGRSFSVFAMGWFRQAPGKERELVAAISWRGDSTYYADLVKGRFTISRDNAKNAVYLQMNSLKPEDTAVYYCAADRSDYVVTHEYDYWGQGTQVTISP
notes: also called anti-PltB VHH T2E1; source: E. coli Rosetta-gami 2(DE3)pLacI, pET32b+, purified (Ni-NTA)
B3: T2C1 (VHH)
VHH: QVQLVETGGGLVQAGGSLRLSCAASGRTFSGDAMGWFRQAPGKEREFVAAISWNGGSTDYADSVKGRFTISRDAKNTVYLQMNSLKPEDTAVYYCASSREDYGSSFLRGSYDYLGQGTQVTVSS
B4: T2D9 (VHH)
VHH: QLQLVESGGGLVQPGGSLRLSCVLSGSDLAYYNVGWFRQAPGKEREGVACTSRVSDTKYYADSVKARFTVARDNAKNTVNLQMSSLRPEDTAVYSCALLRWCTTEDSDSEGMGHWGKGTLVTVSS
B5: T2F11 (VHH)
VHH: QVQLVETGGGLVQPGGSLRLSCVLSGSDLAYYNVGWFRQAPGKEREGVACTSRVSDTKYYADSVKARFTVARDNAKNTVNLQMNSLRPEDTAVYSCALLRWCTTEGSDSEGMGHWGKGTLVTVSS
notes: also called anti-PltB VHH T2F11; source: E. coli Rosetta-gami 2(DE3)pLacI, pET32b+, purified (Ni-NTA)
B6: T2D2 (VHH)
VHH: QVQLAETGGGLVQPGGSLRLSCAASGFDFSRSTMSWVRQAPGKNIEWVSDINSGGGLTNYGDTVKDRFTISRDNAKNTLYLQMNSLDVEDTAVYYCVKGMWITSDQPRGQGTQVTVSS
B7: T2D8 (VHH)
VHH: QLQLVESGGGLVQPGGSLRLSCAASGFTLDYYAIGWFRQAPGKEREWVSCLGRSSSSTSYVADSVQGRFTISRDNAKNTVYLQMNSLKPEDTAVYYCAADLSSQISSCNALDTWGQGTLVTVSS
B8: T2E12 (VHH)
VHH: QVQLAESGGGLVQAGGSLRLSCAASGFTFDDYAVAWFRQAPGKAREMVLCISSSGGSSYYADFVKGRFTVPSNSAKNTVYLQMNSLKPEDTAKYICAVDATYPHSCNALDAWGQGTLVTVSS
B9: T2F7 (VHH)
VHH: QVQLVESGGGLVQPGGSLRLSCAASGFDFSRSTLSWVRQSPGKDFEWVSDINSGSTLTNYGDSVKGRFTTSRDNAKNTLYLQMNSLKPEDTAVYYCVKGMWITRDQPRGQGTQVTVSS
notes: also called anti-PltB VHH T2F7; source: E. coli Rosetta-gami 2(DE3)pLacI, pET32b+, purified (Ni-NTA)
B10: T2B4 (VHH)
VHH: QVQLVETGGALVQTGGSLRLSCAVSGRSSSTQGLGWYRQAPGKEREFVATINWISGATYYSDSVKGRFSISRDNAENTVSLQMHDLKPDDTAVYYCGAGLSPIARMDYWGQGTQVTVSS
B11: T2F3 (VHH)
VHH: QVQLAETGGALVQTGGSLRLSCAVSGRNSEIQGLGWYRQAPGKEREFVATINWRSGATYYDDSVKGRFSISRDNAENTVSLQMNDLKPDDTAVYYCGAGMSPIARMDYWGQGTQVTVSS
notes: also called anti-PltB VHH T2F3; source: E. coli Rosetta-gami 2(DE3)pLacI, pET32b+, purified (Ni-NTA)
B12: T2F2 (VHH)
VHH: QVQLAESGGGLVQAGGSLRLSCVASGRTFSSYAMGWFRRAPGKEREFVASILWSDGSAAYADSVEGRFTISRDNAKNTVHLQMNSLQPEDTAVYYCAAEARGSGTRWGNEYDYWGQGTQVTVSS
notes: also called anti-PltB VHH T2F2; source: E. coli Rosetta-gami 2(DE3)pLacI, pET32b+, purified (Ni-NTA)
B13: T2A1 (VHH)
VHH: QVQLVESGGGLVQAGGSLRLTCAGSGRTFSGDVMGWFRQAPGKEREFVAAISYNGGSTYYADSVKGRFTISRDNAKNTVYLQMDGLKPGDTAVYYCASSREDYGSSLAKGSYDYWGQGTQVTVSS
B14: T2G6 (VHH)
VHH: QVQLVESGGGLVQAGGSLRLSCAASGFTFDDYAIGWFRQAPGKEREMILCINSRSGSTSYYADSVKGRFTVSVNSAKNTAYLQMNSLKPEDTAVYYCAADVTHPHSCNALDAWGQGTLVTVSS
B15: T2G7 (VHH)
VHH: QVQLVESGGGSVQAGGSLRLSCAASGFTFDDYAIGWFRQAPGKEREMILCINSRAGMTSYSADSVKGRFTVSVNSAKNTAYLQMNSLKPEDTAKYYCAADVTHPHSCNALDAWGQGTLVTVSS
B16: T2H1 (VHH)
VHH: QVQLVESGGGLVQAGGSLRLSCAASGFTFDDYAIGWFRQAPGKEREQILCINSNRARTSYYAESIKGRFTVSVNSAKNTVYLQMNSLKPEDTAVYYCAADVTHPHSCNALDAWGQGTLVTVSS
B17: T2H3 (VHH)
VHH: QVQLAESGGGLVQAGGSLRLSCVASGRTFDINTMAWYRQAPGKQRDFVASSYHGGITNYADSVKGRFTMSRDNAKNTVYLQMNSLKPEDTGVYYCTWRGGGVYWGQGTQVTVSS
B18: T2G4 (VHH)
VHH: QVQLVESGGGSLRLSCAVFGRTFSGDAVGWFRQAPGKEREFVAAINWNGRSTDYADSVKGRFTISRDDTENTVYLQMNSLKPEDTAVYYCATSREDYGSSFLRGSYDYLGQGTQVTVSS
notes: also called anti-PltB VHH T2G4; source: E. coli Rosetta-gami 2(DE3)pLacI, pET32b+, purified (Ni-NTA)
B19: T2G11 (VHH)
VHH: QVQLVETGGLVQAGGSLSLSCAVSGRTFNLLHLAWFRQAPGNERDLVASISGSLGSVYYADSVRGRFTISRDAANNTVYLQMNSLKLEDTAVYYCAGAPIFDRFSSSSSSYDYWGQGTQVTVSS
notes: also called anti-PltB VHH T2G11; source: E. coli Rosetta-gami 2(DE3)pLacI, pET32b+, purified (Ni-NTA)
B20: T2C5 (VHH)
VHH: QVQLVETGGGLVQPGGSLRLSCATSGFTFSSTTMTWVRQAPGKGLEWLSGIYSDGRTEYADSVKGRFTISRDNAKNTLYLEMNSLKPEDTAVYFCAKGLLGAERGQGTRVTVSS
B21: T2E11 (VHH)
VHH: QLQLVETGGGLVQPGGSLRLSCAASGFSLDYYAIGWFRQAPGKEREGVGCISSSGSTTKYADSVKGRFTISRDNAKNTVYLQMNSLKPEDTAVYYCAARNPADLNCGAYVLNGEYWGQGTQVTVPS
B22: T2E8 (VHH)
VHH: QVQLAESGGGSVQAGGSLRLSCAASGLTFDKYAIGWFRQAPGKGREMVSCINTNYGSTYYADSVKGRFTISSDTAKNTVYLQMNSLSPEDTAVYYCAADTRSSWPSCNALDTWGQGTLVTVSS
B23: T2A3 (VHH)
VHH: QVQLAESGGGLVQAGGSLRLSCAASGLTFDKYAIGWFRQAPGKERELVSCISTNYGSPYYADSVKGRFTISSDNAKNTVYLQMNSLKPEDTAVYYCAADTRSSWPSCNALDARGQGTLVTVSS
B24: T2G1 (VHH)
VHH: QVQLAESGGGLVQAGGSLRLSCAASGLTFDKYAIGWFRQAPGKERELVSCISTNYGSTYYADSVKGRFTISTDNAKNTVYLQMNGLKPEDTAVYYCAADTRSSWPSCNALDTWGQGTLVTVSS
notes: also called anti-PltB VHH T2G1; source: E. coli Rosetta-gami 2(DE3)pLacI, pET32b+, purified (Ni-NTA)
B25: T2D10 (VHH)
VHH: QVQLAETGGGLVQAGGSLRLSCAASGLTSSRYAMAWFRQVPGLEREFVASMTGSGGRTFYADSVKGRFTISRDNAKNTVYLQMNNLNPEDTAVYYCAVEYRDSGTRWSNEYDYWGQGTQVTVSS
B26: T2F6 (VHH)
VHH: QLQLAESGGGLVQPGGSLRLSCAVSGFMVNSYDIGWFRQAPGKAREGISCINTSGDTPNYADSVKGRFTISRDNAKNMVYLQMNSLKPEDTATYFCAANRMTRCSDYNGYPYWGQGTQVIVSS
notes: also called anti-PltB VHH T2F6; source: E. coli Rosetta-gami 2(DE3)pLacI, pET32b+, purified (Ni-NTA)
B27: T2C7 (VHH)
VHH: QLQLAESGGGLVQAGGSLRLSCVVSGRTDSSYAVGWFRQAPGKEREFVAAIMWSGISTYYADSVKGRFTISLDNAKSTVYVQMNSLKPEDTAVYYCAAWKGATVTDDDPWGQGTQVTVSS
B28: T2B2 (VHH)
VHH: QLQLAESGGGLVQAGGSLRLSCAASGRTFNTLHLAWFRQAPGNERDFVASISGSLGSLHYADSVKGRFTISRDNANNTVYLQMNSLKLEDTAVYYCAGAPIYDRFSSSSSSYDYWGQGTQVTVSS
B29: T2A2 (VHH)
VHH: QVQLAETGGGLVQPGGSLRLSCAVSGFMVNSYDIGWFRQAPGKEREGVSCISSSGGATHYVDSVKGRFTISRDNAKNMVYLQMNSLKPEDTATYYCAANRMTRCSDYHGYPFWGQGTQVTVSS
B30: T2H5 (VHH)
VHH: QVQLVETGGGLVQAGGSLRLSCTASGFTFDEYAIGWFRQAPGKEREMILCISSVGGSTYYADSVKGRFTISSDNAKNTMYLQMSSLKPEDTAKYYCAVDVTPPHSCNALDTWGQGTLVTVSS
B31: T2B12 (VHH)
VHH: QLQLVESGGGSVQAGGSLRLSCAASGFTFGDYAIAFFRQAPGKEREGVSCISTYDGSTYYGDSVKGRFTISSDNAKNTVYLQMNSLKPEDTAVYYCAADRADCGWYYPYDYWGQGTQVTVSS
B32: T2A7 (VHH)
VHH: QVQLVETGGGLVQTGGSLRLSCAASGFTFDDFAIGWFRQAPGKEREWVSCISSRNGSPYYADSVKGRFTISSDNAKNTVYLQMNSLKPEDTAVYYCKADTDSIVPSCNALDTWGQGTLVTVSS

What was measured:
[1] = target: T1, PltB homopentamer, biotinylated (Salmonella enterica serovar Typhi; …, UniProt Q8Z6A3, biotinylated with EZ-link NHS-Biotin (sites not given))
[2] = target: T1, PltB homopentamer, biotinylated; assay: ELISA; […] (30 min, 37°C) […]; conditions: both partners purified

Row | Binder | binding result [1] | binding result [2]
1 | B1 | binds | 
2 | B2 |  | binds
3 | B3 | binds | 
4 | B4 | binds | 
5 | B5 |  | binds
6 | B6 | binds | 
7 | B7 | binds | 
8 | B8 | binds | 
9 | B9 |  | binds
10 | B10 | binds | 
11 | B11 |  | binds
12 | B12 |  | binds
13 | B13 | binds | 
14 | B14 | binds | 
15 | B15 | binds | 
16 | B16 | binds | 

Row | Binder | binding result [1] | binding result [2]
17 | B17 | binds | 
18 | B18 |  | binds
19 | B19 |  | binds
20 | B20 | binds | 
21 | B21 | binds | 
22 | B22 | binds | 
23 | B23 | binds | 
24 | B24 |  | binds
25 | B25 | binds | 
26 | B26 |  | binds
27 | B27 | binds | 
28 | B28 | binds | 
29 | B29 | binds | 
30 | B30 | binds | 
31 | B31 | binds | 
32 | B32 | binds | 

From paper PMC8852740, “Neutralization of Typhoid Toxin by Alpaca-Derived, Single-Domain Antibodies Targeting the PltB and CdtB Subunits” (Infection and Immunity, 2021)
